This test deals with T1, peptide spanning amino acids 14-28 of human ghrelin (human).
T1 peptide: QRKESKKPPAKLQPR
The test can be described thus: FLIPR assay, peptide competes with hGhrelin for the Fab (Fab 20 nM). Here is the method: The final concentration of the sample solution is 0.75% BSA, and calcium at approximately the same concentration as in the FLIPR buffer. Fifty microliters of the sample solution is added to the 50 μl FLIPR buffer in the well with the AV12 cells. […] The cell plate is shaken for 15 seconds prior to loading it into the FLIPR instrument. Test samples or control samples are added to each well, and read by a Fluorometric Imaging Plate Reader (Molecular Devices).

B1: Fab 1451 (Fab, V domains shown)
VH: QVHVKQSGPELVRPGASVKMSCKASAYTFTTYWMHWVKQRPGQGLEWIGMIDPYNSETWLNQKFKDKATLNVDRSSNTAYMKLSSLTSEDSAVYYCARTGFDYWGQGTTLTVSS
VL: DVVLTQTPLSLPVSLGDQASISCRSSQSLVHSNGNTYLHWYLQKPGQSPKLLIYKVSNRFSGVPDRFSGSGSGTDFTLKISRVEAEDLGVYFCSQSTHVPYTFGGGTKLEIKR
notes: Mouse Fab
Turning to B1, the binding result is reported as “no binding (tested: 100 nM peptide)”.
